# Measured values as given in patent US6391305B1, “Conjugates useful in the treatment of prostate cancer” (priority 1999, dated 2002).
# Where two headings read alike, the source gives them in different places. Marks after values point to notes of the source that are not given here. Non-standard residues stand in square brackets, D forms with d. Residues, ends and D or L forms follow the SMILES beside them. Primed or numbered codes have the meaning given here. No end group written: not given here. *: point of attachment. Doxorubicin(3'-N) = COc1cccc2c1C(=O)c1c(O)c3c(c(O)c1C2=O)C[C@@](O)(C(=O)CO)C[C@@H]3O[C@H]1C[C@H](N*)[C@H](O)[C@H](C)O1; PEG(1) = polyethylene glycol containing substituent with 1 ethyleneoxy subunit; Decanoyl(3,6,9-trioxa) = COCCOCCOCC(=O)*; Glyceroyl(2R) = O=C([C@H](O)CO)*; hArg = N=C(N)NCCCC[C@H](N)C(=O)O; 3Pal = N[C@@H](Cc1cccnc1)C(=O)O; Chg = N[C@H](C(=O)O)C1CCCCC1; PEG(15) = PEG(15): -; PEG(16) = PEG(16): -; PEG(17) = PEG(17): -; Glycolyl = O=C(CO)*
# Tests used:
# [1] = tested on: LNCap prostate tumor cells; experiment: In vitro cytotoxicity, Alamar Blue assay, LNCaP; assay type: cell-based; details: 72 HRS, read-out: LNCaP Cell Kill in 72 HRS, {48 HRS} EC 50
# Experimental: The cytotoxicities of the cleaveable oligopeptide-doxorubicin conjugates, prepared as described in Examples 3-6, against a line of cells which is known to be killed by unmodified doxorubicin was assessed with an Alamar Blue assay. Specifically, cell cultures of LNCap prostate tumor cells or DuPRO cells in 96 well plates was diluted with medium containing various concentrations of a given conjugate (final plate well volume of 200 μl ). The cells were incubated for 3 days at 37° C., 20 μl of Alamar Blue is added to the assay well. The cells were further incubated and the assay plates were read on a EL-310 ELISA reader at the dual wavelengths of 570 and 600 nm at 4 and 7 hours after addition of Alamar Blue. Relative percentage viability at the various concentration of conjugate tested was then calculated versus control (no conjugate) cultures. If no salt is indicated, the free conjugate was tested.
# [2] = biological target: T1, enzymatically active free PSA (Homo sapiens, UniProt P07288); experiment: Recognition (cleavage) of oligopeptide-doxorubicin conjugates by free PSA, HPLC; assay type: biochemical; details: DOX conjugate; for Time to 50% Substrate Cleavage by York PSA: PSA digestion buffer pH7.4, 140 mM NaCl, molar ratio to PSA 100 to 1
# T1 construct: required for 50% cleavage of the noted oligopeptides with enzymatically active free PSA
# T1 sequence (P07288 25-261): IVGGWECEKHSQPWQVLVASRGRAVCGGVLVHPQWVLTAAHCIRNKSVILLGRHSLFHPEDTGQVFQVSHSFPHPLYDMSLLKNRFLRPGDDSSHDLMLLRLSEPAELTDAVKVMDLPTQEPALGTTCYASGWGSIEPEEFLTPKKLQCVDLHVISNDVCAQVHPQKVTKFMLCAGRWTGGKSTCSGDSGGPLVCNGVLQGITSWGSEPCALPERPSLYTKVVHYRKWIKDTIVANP
# Experimental: If no salt is indicated for the conjugate, the free conjugate was tested.
# [3] = biological target: T1, enzymatically active free PSA; assay type: biochemical; details: oligopeptide; for Time to 50% Substrate Cleavage by York PSA: PSA digestion buffer pH8.0, molar ratio to PSA 100 to 1; for Time to 50% Substrate Cleavage by York PSA (Min), values marked *: asterisk not explained in Table 2
# Experimental: All other oligopeptides were tested as neutral compounds.
compound,measurement,setting,value
"COc1cccc2c1C(=O)c1c(O)c3c(c(O)c1C2=O)C[C@@](O)(C(=O)CO)C[C@@H]3O[C@H]1C[C@H](NC(=O)[C@H](CC(C)C)NC(=O)[C@H](CO)NC(=O)[C@H](CCC(N)=O)NC(=O)[C@@H](NC(=O)[C@H](CO)NC(=O)[C@H](C)NC(=O)[C@H](CCCCNC(=N)N)NC(=O)CO)C2CCCCC2)[C@H](O)[C@H](C)O1 [2-hydroxyacetyl-HomoRASChgQ-SL-DOX (3′), 2-hydroxyacetyl-hArgAlaSerChgGln-SerLeu-DOX (3′)] (Glycolyl-[hArg]AS[Chg]QSL-{Doxorubicin(3'-N)})",EC50,[1],7.9 µM
"COc1cccc2c1C(=O)c1c(O)c3c(c(O)c1C2=O)C[C@@](O)(C(=O)CO)C[C@@H]3O[C@H]1C[C@H](NC(=O)[C@H](CC(C)C)NC(=O)[C@H](CO)NC(=O)[C@H](CCC(N)=O)NC(=O)[C@H](Cc2ccc(O)cc2)NC(=O)[C@H](CO)NC(=O)[C@H](CO)NC(=O)[C@H](CCCCNC(=N)N)NC(=O)CO)[C@H](O)[C@H](C)O1 [2-hydroxyacetyl-HomoRSSYQ-SL-DOX (3′), 2-hydroxyacetyl-hArgSerSerTyrGln-SerLeu-DOX (3′)] (Glycolyl-[hArg]SSYQSL-{Doxorubicin(3'-N)})",EC50,[1],13.6 µM
same,Time to 50% Substrate Cleavage by York PSA,[2],16 min
"COc1cccc2c1C(=O)c1c(O)c3c(c(O)c1C2=O)C[C@@](O)(C(=O)CO)C[C@@H]3O[C@H]1C[C@H](NC(=O)[C@H](CC(C)C)NC(=O)[C@H](CO)NC(=O)[C@H](CO)NC(=O)[C@H](CO)NC(=O)[C@H](CCC(N)=O)NC(=O)[C@H](Cc2ccc(O)cc2)NC(=O)[C@H](CO)NC(=O)CO)[C@H](O)[C@H](C)O1 [2-hydroxyacetyl-SYQ-SSSL-DOX (3′), 2-hydroxyacetyl-SerTyrGln-SerSerSerLeu-DOX (3′)] (Glycolyl-SYQSSSL-{Doxorubicin(3'-N)})",EC50,[1],18.8 µM
"COc1cccc2c1C(=O)c1c(O)c3c(c(O)c1C2=O)C[C@@](O)(C(=O)CO)C[C@@H]3O[C@H]1C[C@H](NC(=O)[C@H](CC(C)C)NC(=O)[C@H](CO)NC(=O)[C@H](CCC(N)=O)NC(=O)[C@@H](NC(=O)[C@H](CO)NC(=O)[C@H](CO)NC(=O)[C@H](Cc2cccnc2)NC(=O)[C@H](O)CO)C2CCCCC2)[C@H](O)[C@H](C)O1 [(d)(2,3-dihydroxypropionyl)-3PAL-SerSerChgGln-SerLeu-DOX (3′)] ({Glyceroyl(2R)}-[3Pal]SS[Chg]QSL-{Doxorubicin(3'-N)})",EC50,[1],5.5 µM
same,Time to 50% Substrate Cleavage by York PSA,[2],12 min
"COCCOCCOCC(=O)N[C@@H](C)C(=O)N[C@@H](CO)C(=O)N[C@H](C(=O)N[C@@H](CCC(N)=O)C(=O)N[C@@H](CO)C(=O)N[C@@H](CC(C)C)C(=O)N[C@H]1C[C@H](O[C@H]2C[C@](O)(C(=O)CO)Cc3c(O)c4c(c(O)c32)C(=O)c2c(OC)cccc2C4=O)O[C@@H](C)[C@H]1O)C1CCCCC1 [PEG(2)-ASChgQ-SL-DOX (3′), PEG(2)-AlaSerChgGln-SerLeu-DOX (3′)] ({Decanoyl(3,6,9-trioxa)}-AS[Chg]QSL-{Doxorubicin(3'-N)})",EC50,[1],5.6 µM
same,Time to 50% Substrate Cleavage by York PSA,[2],45 min
"COCCOCCOCC(=O)N[C@@H](CCCCNC(=N)N)C(=O)N[C@@H](Cc1ccc(O)cc1)C(=O)N[C@@H](CCC(N)=O)C(=O)N[C@@H](CO)C(=O)N[C@@H](CO)C(=O)N[C@@H](CO)C(=O)N[C@@H](CC(C)C)C(=O)N[C@H]1C[C@H](O[C@H]2C[C@](O)(C(=O)CO)Cc3c(O)c4c(c(O)c32)C(=O)c2c(OC)cccc2C4=O)O[C@@H](C)[C@H]1O [PEG(2)-HomoRYQ-SSSL-DOX (3′), PEG(2)-hArgTyrGln-SerSerSerLeu-DOX (3′)] ({Decanoyl(3,6,9-trioxa)}-[hArg]YQSSSL-{Doxorubicin(3'-N)})",EC50,[1],14 µM
same,Substrate cleavage by York PSA at 4 HOUR,[2]; 4 hours,40%
"COCCOCCOCC(=O)N[C@@H](CCCCN)C(=O)N[C@@H](Cc1ccc(O)cc1)C(=O)N[C@@H](CCC(N)=O)C(=O)N[C@@H](CO)C(=O)N[C@@H](CO)C(=O)N[C@@H](CO)C(=O)N[C@@H](CC(C)C)C(=O)N[C@H]1C[C@H](O[C@H]2C[C@](O)(C(=O)CO)Cc3c(O)c4c(c(O)c32)C(=O)c2c(OC)cccc2C4=O)O[C@@H](C)[C@H]1O [PEG(2)-KYQ-SSSL-DOX (3′), PEG(2)-LysTyrGln-SerSerSerLeu-DOX (3′)] ({Decanoyl(3,6,9-trioxa)}-KYQSSSL-{Doxorubicin(3'-N)})",EC50,[1],12.8 µM
"COCCOCCOCC(=O)N[C@@H](CO)C(=O)N[C@@H](CCCCNC(=N)N)C(=O)N[C@@H](Cc1ccc(O)cc1)C(=O)N[C@@H](CCC(N)=O)C(=O)N[C@@H](CO)C(=O)N[C@@H](CC(C)C)C(=O)N[C@H]1C[C@H](O[C@H]2C[C@](O)(C(=O)CO)Cc3c(O)c4c(c(O)c32)C(=O)c2c(OC)cccc2C4=O)O[C@@H](C)[C@H]1O [PEG(2)-SHomoRYQ-SL-DOX (3′), PEG(2)-SerhArgTyrGln-SerLeu-DOX (3′)] ({Decanoyl(3,6,9-trioxa)}-S[hArg]YQSL-{Doxorubicin(3'-N)})",EC50,[1]; listed as PEG(2)-ShRYQ-SL-DOX(3′),34 µM
same,Time to 50% Substrate Cleavage by York PSA,[2],60 min
"AchRSSChgQ-SL-acid: blocked oligopeptide with PSA cleavage site, Example 1 (Ac-[hArg]SS[Chg]QSL-OH)",Time to 50% Substrate Cleavage by York PSA,[3],120 min
same,"Time to 50% Substrate Cleavage by York PSA (Min), values marked *",[3],45 min
"PEG(1)-ShRChgQ-SL-acid: blocked oligopeptide with PSA cleavage site, Example 1 ({PEG(1)}-S[hArg][Chg]QSL-OH)","Time to 50% Substrate Cleavage by York PSA (Min), values marked *",[3],120* Min
"PEG(1)-ShRYQ-SL-acid: blocked oligopeptide with PSA cleavage site, Example 1 ({PEG(1)}-S[hArg]YQSL-OH)",Time to 50% Substrate Cleavage by York PSA,[3],90 min
"PEG(1)-hRSSChgQ-SL-acid: blocked oligopeptide with PSA cleavage site, Example 1 ({PEG(1)}-[hArg]SS[Chg]QSL-OH)",Time to 50% Substrate Cleavage by York PSA,[3],30 min
"PEG(2)-3PAL-SSChgQ-SL-acid: blocked oligopeptide with PSA cleavage site, Example 1 ({Decanoyl(3,6,9-trioxa)}-[3Pal]SS[Chg]QSL-OH; SMILES COCCOCCOCC(=O)N[C@@H](Cc1cccnc1)C(=O)N[C@@H](CO)C(=O)N[C@@H](CO)C(=O)N[C@H](C(=O)N[C@@H](CCC(N)=O)C(=O)N[C@@H](CO)C(=O)N[C@@H](CC(C)C)C(=O)O)C1CCCCC1)",Time to 50% Substrate Cleavage by York PSA,[3],80 min
"PEG(2)-S-hRChgQ-SL-acid: blocked oligopeptide with PSA cleavage site, Example 1 ({Decanoyl(3,6,9-trioxa)}-S[hArg][Chg]QSL-OH)",Time to 50% Substrate Cleavage by York PSA,[3],30 min
"PEG(2)-SerSerSerChgGln-Ser(dLeu)-DOX (3′) ({Decanoyl(3,6,9-trioxa)}-SSS[Chg]QS[dL]-{Doxorubicin(3'-N)}; also: DOX attached at 3′) [PEG(2)-SSSChgQ-S(dL)-DOX (3′)]",Substrate cleavage by York PSA at 3 HOUR,[2]; 3 hours,46%
"PEG(2)-ShRYQ-SL-acid: blocked oligopeptide with PSA cleavage site, Example 1 ({Decanoyl(3,6,9-trioxa)}-S[hArg]YQSL-OH)","Time to 50% Substrate Cleavage by York PSA (Min), values marked *",[3],35* Min
"PEG(2)-hRSSChgQ-SL-acid: blocked oligopeptide with PSA cleavage site, Example 1 ({Decanoyl(3,6,9-trioxa)}-[hArg]SS[Chg]QSL-OH)","Time to 50% Substrate Cleavage by York PSA (Min), values marked *",[3],40* Min
"PEG(2)SSSChgQ-SL-acid: blocked oligopeptide with PSA cleavage site, Example 1 ({Decanoyl(3,6,9-trioxa)}-SSS[Chg]QSL-OH)",Time to 50% Substrate Cleavage by York PSA,[3],150 min
"PEG(14)ShRYQ-SL-acid: blocked oligopeptide with PSA cleavage site, Example 1 ({PEG(14)}-S[hArg]YQSL-OH)",Time to 50% Substrate Cleavage by York PSA,[3],40 min
"PEG(15)-ShRYQ-SL-acid: blocked oligopeptide with PSA cleavage site, Example 1 ({PEG(15)}-S[hArg]YQSL-OH)",Time to 50% Substrate Cleavage by York PSA,[3],40 min
"PEG(16)-ShRYQ-SL-acid: blocked oligopeptide with PSA cleavage site, Example 1 ({PEG(16)}-S[hArg]YQSL-OH)",Time to 50% Substrate Cleavage by York PSA,[3],40 min
"PEG(17)-ShRYQ-SL-acid: blocked oligopeptide with PSA cleavage site, Example 1 ({PEG(17)}-S[hArg]YQSL-OH)",Time to 50% Substrate Cleavage by York PSA,[3],55 min
"PEG(18)ShRYQ-SL-acid: blocked oligopeptide with PSA cleavage site, Example 1 ({PEG(18)}-S[hArg]YQSL-OH)",Time to 50% Substrate Cleavage by York PSA,[3],40 min
"PEG(19)ShRYQ-SL-acid: blocked oligopeptide with PSA cleavage site, Example 1 ({PEG(19)}-S[hArg]YQSL-OH)",Time to 50% Substrate Cleavage by York PSA,[3],60 min
"ShRChgQ-SL-acid: oligopeptide without N-terminal blocking group, Example 1 (S[hArg][Chg]QSL-OH)",Substrate cleavage by York PSA at 4 HOUR,[3]; 4 hours,4 HOUR = 8%
